# According to US20100172907A1:
# Experiments:
# Experiment in all cases: ELISA
# [1] = biological target: BSA-conjugated Aβ heptapeptide AEFRHDC
# [2] = biological target: BSA-conjugated Aβ heptapeptide FFAEDVC
# [3] = biological target: BSA-conjugated Aβ heptapeptide LVFFAEC
# [4] = biological target: BSA-conjugated Aβ heptapeptide VFFAEDC
OD ratio 2-7/BSA [1],OD ratio 19-24/BSA [2],Peptide-ratio 19-24/2-7 [2],OD ratio 17-22/BSA [3],Peptide-ratio 17-22/2-7 [3],OD ratio 18-23/BSA [4],Peptide-ratio 18-23/2-7 [4],Substance
1,1,1,23,23,20,20,4G8 (antibody)
18,1,0.06,1,0.06,1,0.06,6E10 (antibody)
16,3,0.19,2,0.13,1,0.06,AMY-33 (antibody)
